Test results published in patent US20220112258A1 (I MAB BIOPHARMA US, published 2022).

Legend:
[1] = target: T1, recombinant human his-tagged PD-L1 protein (human, UniProt Q9NZQ7 19-238); assay: SPR (Biacore T200), ligand captured on protein A chip, hPDL1-his as analyte
T1 construct: also called hPDL1-his; his-tagged human PD-L1; not shown: his tag
Procedure: A series of dilutions of human PD-L1 protein were injected over captured antibody at a flow rate of 10 μL/min. […] All the experiments were carried out on a Biacore T200. Data analysis was carried out using Biacore T200 evaluation software.

[2] = target: T1, recombinant human his-tagged PD-L1 …; assay: ELISA, his-tagged PDL1 coated, OD450
From the text: Briefly, for ELISA-based binding, his-tagged PDL1 was used as coating protein.

[3] = target: T2, IL7R of human primary CD4+ T cells (human, UniProt P16871 21-459); assay: flow cytometry on human primary CD4+ T cells, 4 °C 30 min, PE anti-human Fc
T2 construct: whole, on cells; also called IL-7 receptor; IL7Rα (CD127) on CD4+ T cells
T2 sequence (looked up): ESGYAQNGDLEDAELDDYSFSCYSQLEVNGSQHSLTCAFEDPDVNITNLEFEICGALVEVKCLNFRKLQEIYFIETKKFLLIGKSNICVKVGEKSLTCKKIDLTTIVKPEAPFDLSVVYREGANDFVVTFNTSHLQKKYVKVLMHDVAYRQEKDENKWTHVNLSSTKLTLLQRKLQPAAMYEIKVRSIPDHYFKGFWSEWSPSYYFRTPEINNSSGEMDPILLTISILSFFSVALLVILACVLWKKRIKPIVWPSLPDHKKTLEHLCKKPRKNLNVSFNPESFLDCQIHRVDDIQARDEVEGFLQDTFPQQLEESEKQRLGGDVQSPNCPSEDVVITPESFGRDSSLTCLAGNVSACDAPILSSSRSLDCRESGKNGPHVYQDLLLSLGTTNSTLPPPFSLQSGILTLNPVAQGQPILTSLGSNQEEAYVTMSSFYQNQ
Procedure: Briefly, for IL7R binding assay, human primary CD4⁺ T cells were incubated with various anti-PDL1-IL7 fusion molecules at 4° C. for 30 mins. […] For ligation-mediated receptor internalization assay, human primary CD4⁺ T cells were cocultured with fusion molecules at 37° C. for 15 mins to induce internalization. PE-cy7-conjugated-anti-CD127 (IL7Rα) antibody was used to detect the surface IL7Rα by FACS.

[4] = target: T3, PD-L1 expressed on cells (Raji-PD-L1; tumor cell lines RKO, HCC1954, HCC827) (human, UniProt Q9NZQ7 19-290); assay: flow cytometry on RKO colon carcinoma cells, MFI
T3 construct: whole, on cells; also called cell-surface expressed PD-L1; cell surface PD-L1

[5] = target: T3, PD-L1 expressed on cells (Raji-PD-L1; …); assay: flow cytometry on HCC827 lung cancer cells, MFI
[6] = target: T3, PD-L1 expressed on cells (Raji-PD-L1; …); assay: flow cytometry on HCC1954 breast cancer cells, MFI
[7] = target: T3, PD-L1 expressed on cells (Raji-PD-L1; …); assay: flow cytometry on Raji-PD-L1 cells, PE anti-human IgG Fc, MFI
Procedure: After washing by FACS staining buffer, the PE-conjugated anti-human IgG Fc specific antibody was added to each well and incubated on ice for 30 mins. The MFI of PE were evaluated by FACS Celesta.

T1 sequence (Q9NZQ7 19-238 limits assumed): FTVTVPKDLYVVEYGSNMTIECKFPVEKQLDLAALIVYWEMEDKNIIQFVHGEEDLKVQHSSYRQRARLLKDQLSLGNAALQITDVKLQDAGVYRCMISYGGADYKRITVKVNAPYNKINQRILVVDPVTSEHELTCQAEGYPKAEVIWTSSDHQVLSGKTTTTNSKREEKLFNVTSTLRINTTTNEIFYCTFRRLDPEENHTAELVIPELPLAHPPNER
T3 sequence (Q9NZQ7 19-290): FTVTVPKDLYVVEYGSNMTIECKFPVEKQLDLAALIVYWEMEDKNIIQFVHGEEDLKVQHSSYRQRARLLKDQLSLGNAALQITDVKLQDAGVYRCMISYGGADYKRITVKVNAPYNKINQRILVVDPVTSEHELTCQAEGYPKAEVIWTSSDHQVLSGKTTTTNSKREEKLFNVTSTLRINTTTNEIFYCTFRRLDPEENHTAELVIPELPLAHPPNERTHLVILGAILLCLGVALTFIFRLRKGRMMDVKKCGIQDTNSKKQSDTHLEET

B1: α-PDL1(anti-PD-L1 v3) monoclonal antibody (antibody, V domains shown)
VH: EVQLVESGGGLVQPGGSLRLSCAASGFTFSSYDMSWVRQAPGKSLEWVATISDAGGYIYYSDSVKGRFTISRDNAKNSLYLQMNSLRDEDTAVYICAREFGKRYALDYWGQGTTVTVSS
VL: DIQMTQSPSSLSASVGDRVTITCKASQDVTPAVAWYQQKPGKAPKLLIYSTSSRYTGVPSRFSGSGSGTDFTFTISSLQPEDIATYYCQQHYTTPLTFGQGTKLEIK
notes: also called parental anti-PD-L1 antibody (v3)
- Kd [1]: 2.03 nM
- koff [1]: 0.000164 s⁻¹
- kon [1]: 80700 M⁻¹ s⁻¹
- EC50 [2]: 0.11 nM
- binding result [3]: no binding (tested: 100 nM)

B2: α-PDL1(anti-PD-L1 v4) monoclonal antibody (antibody, V domains shown)
VH: QVQLLESGGGLVQPGGSLRLSCAASGFTFSSYWMSWVRQAPGKGLEWVANIKQDGSEKYYVDSVKGRFTISRDNAKNSLYLQMNSLRAEDTAVYYCARVALWDDAFDIWGQGTMVTVSS
VL: DIQMTQSPSTLSASVGDRVIITCRASRGISSWLAWYQQKPGKAPNLLISKASSLESGVPSRFSGSGSGTDFTLTISSLQPEDFATYYCQQSSSIPLTFGGGTKVEIK
notes: also called parental anti-PD-L1 (V4) antibody
- EC50 [4]: 0.19 nM
- Kd [1]: 0.948 nM
- koff [1]: 0.000795 s⁻¹
- kon [1]: 838000 M⁻¹ s⁻¹
- EC50 [5]: 0.17 nM
- EC50 [6]: 0.28 nM
- EC50 [2]: 0.46 nM
- EC50 [7]: 0.11 nM
